Assay: soluble on expression in E. coli; label from the status in PepcDB or PDB records

Sequence | soluble on expression in E. coli
MAHHHHHHMYFVIEEWKNVIIKPSQLGPRYQQYIEDMLRNSVEGQCSVKYGYVICVIRIIHSEPGRVQDGTGMIVVKVKYQAIVFKPFKDEVLDAIVTDVNKLGFFAQAGPLKIFISRTAIPKYFEYSEDLHYPCFSSGDYNIKPQTTVRIKLQGIRYDLSNMFAIATINNEYLGCIESNILQVM | not soluble
MAHHHHHHMYRSSGELRKYAQCVFALYCLDDGLSISRFRLAWYVLWGKWPEESVVQMLFDKKDKSTGGNEDPTGEEGGIVGSGGLAEKDKHHDGGTPLAQSFPFSALRRRINEKEFVRFAVTYHDTMGADAVGFGVTEEDGEYATVDMQSAFSGVVRARHWLQFHALAGSKGYVTLDDLIATEKVDWLYPPMSGGSASGLMVEQAGDDSSTMPQDDVDRRLAVLSHVFAIIDGDHDGKLNFEDVTRHLAKTA | not soluble
MAHHHHHHMYSDGERKTVSELQREAEATRKEIIEEAQRLERIKKATAKTQFSIDQLFRFFAREVETEGEKKMLIDLLSSNPPDLHIECVPVLPVVIAIANGRMTNARRIYATDNAFLDDSAFIFLVHTLRFLPQACKIDFLDISGTRVTERGMCFVLEMMIERNTPFTLVAKRLSIPSPEAEAMRARYASLMSALRDKKCCRFIQE | not soluble
MAHHHHHHSAALEVLFQGPGMAETKLQLFVKASEDGESVGHCPSCQRLFMVLLLKGVPFTLTTVDTRRSPDVLKDFAPGSQLPILLYDSDAKTDTLQIEDFLEETLGPPDFPSLAPRYRESNTAGNDVFHKFSAFIKNPVPAQDEALYQQLLRALARLDSYLRAPLEHELAGEPQLRESRRRFLDGDRLTLADCSLLPKLHIVDTVCAHFRQAPIPAELRGVRRYLDSAMQEKEFKYTCPHSAEILAAYR | soluble
MAHHHHHHSGMSGMRVYLGADHAGYELKQRIIEHLKQTGHEPIDCGALRYDADDDYPAFCIAAATRTVADPGSLGIVLGGSGNGEQIAANKVPGARCALAWSVQTAALAREHNNAQLIGIGGRMHTVAEALAIVDAFVTTPWSKAQRHQRRIDILAEYERTHEAPPVPGAPA | soluble
MAHHHHHHSLEYNLTTTEVAMENVSASWDEGIGEFFEKAKLEVNGGNISNEDPSAFFSNFSLHVAPVLRNINFKIEKGQLLAIAGSTGAGKTSLLMMIMGELEPSAGKIKHSGRISFSPQVSWIMPGTIKENIVFGVSYDQYRYLSVIKACQLEEDISKFPEKDNTVLGEGGITLSGGQRARISLARAVYKDADLYLLDSPFSYLDLFTEKEIFESCVCKLMANKTRILVTSKVEQLKKADKVLILHEGSCYFYGTFSELEDQRPEFSSHLIGFDHFNAERRNSIITETLRRCSEG | soluble
MAHHHHHHSLITIETVLTILKNNANFREIIDGKHYQYKYSNPEVAFHHISYDSRDIKASTLFFVKGATFKKEFLEKAIESGLTFYVAEKDYQVGIPLILVNNIKNAMCLIAKEFYDNPQDKLKTLAFTGTKGKTTAAYFAYHILKQGYRPAMISTMNTTLDGKTFFKSKLTTPESLDLFKMMAQAVANGMTHLIMEVSSQAYLVGRVYGLTFDVGVFLNISPDHIGPIEHPTFEDYFYHKRLLLKHSRYVIVNSQMNHFALIKEQVADQPHDFYGKYSDNQIINSKAFSFDLTGKLAGHYDIQLTGSFNQENAVAAALACLQLGASQTDIQKGIVQTTVPGRMEVLIQKNGAKVFVDYAHNGDSLEKLLSVVEEHQKGTLILILGAPGNKGESRRADFGYVINAHPELQVILTADDPNNEDPQLISQEIAHHIKRPVNIIVDRKQAIQKAMSLTQSENDAVIIAGKGADAFQIIKGKRTAYAGDIEVARKYLEG | soluble
MAHHHHHHSLKIRQARLEDLDRIVELEFENFSVEEAIPPSVFEAHLREIQTSFLVAEKEGRIMGYIEGPVGLHRHLQDQSFTEEIKDYSHEPGGYISVTCLSIAKEAQGLGLGQKLLTALKEVALEDERDGINLTCHDYLIAYYEKHGFVNEGQSQSTFAGETWYDMVWEMKKEG | not soluble
MAHVAFNLLHLPAKTLRNVFQLMSHSELFIFSFASICAKRLVKSMNFEMLELDLVYSRPCKLKISFGEHEEFIIEFDEFGTLSKQEPSDAFVFLIAYKLDIRDCINHVLEVYKISKLHTLKVIGAINNPQNLLKIIGKLDLKVLWIFFNFSENSTTISVYREILNHLGARCDVRSLRRGFYDKEPQKSFFLLRLSLSYALSQEPHSRPTATLAARRLKRRQDTQPLDATTSVLMLRSCRTVGRGTSLPTHPPFSFVIAPHYYSCTCSDIQGEPDKLQ | not soluble
MAIADEFRQLQTRLLECWEGTETFIPELPRGPGGIERDILVVPSLSFPQPELGKITGYTHYEERQLYTLIQLRNPRTRMIYVTSQPLHPSIVDYYLDLLPGVPSCHARDRLLLLATYDRSDKPLTAKILERPRLLERIRQALRPNQAYMVCFNSTPLERELAVRLGVPLYSTDPDLLYWGTKAGSRELFAAAGIRHPIGSGFLQGVPELVRAIAHLQEKCPELQQLVVKLNEAFSGEGNALLDLRPLRPLGSPHTPDHLQRIENSLEDMVFQAPNETWASYRQRFTDLGGIVEAFVEGTVKRSPSVQGCITPKGSVEIVSTHEQLLNAPTGQIFIGCEFPAHADYRQQLQELGQKVGTYLAQQGVIGCFSVDVVATQTTEGWELYAIEINLRKGGTTHPFMTLKFLTDGHYELASGRFYSKHRRPKYYIASDNLCQPHYRGLLPNDLLDMIARYHLHFDSSTETGTVFHLMGALSEFGKLGLVSIGNTPEEAQAIYNQTIGVLDAAALLEHHHHHH | not soluble
MAIDPAAAYASAIRTPGLLPNAKLVVDHFHVTTLANDALTAVRRRVTWAFHDRRGRKIDPQWANRRRLLTARERLSDKSFAKMRNRINAVDPRAQILSAWIAKEELRTLLSTVRTGGDPHLARHHLHRFLPGASTRRSPNCSPWPPPLTSHPRSTPSWSPASPTRASVVGEVAEMLGDIDGQCVQVEVPVPERGPAGCGGLDGLGRAGVSATPRVCAAMTAVNVAGRCAGQQADVGPTPQHRCRGR | soluble
MAIQFELYKSPARKDEEDKELYHARVVNFQHIDTDYLAKEIQQATSLTEGDVKAVLESLSHFMGSRLREGERVHLDGIGYFQVKLNSLEPITSPKLKANQMKLKANIGFKADKKLRSSVSVVKVERSKLKLHSVPRSNEEIDRLLTAYFSNNQILTRSDFQGLCKLTLTTAARHIKRLKEEKKLQNINTRQSPVYVPMPGYYGKPEVEDTVK | not soluble
MAISDSYLKSCLGRERDKVEEKADRDGLWVRISKKGAVTFFYRFRFLGKQDKMTIGSYPEFGLKAAREEVTKWAAILARGENPRIRQSLDKAKINSQYTFEELFREWHAMVCVQKETSDQILRSFELHVFPKLGKYPAHQLTLHNWLTVLDRLAQGYTEITRRVISNGRQCYSWAVKRQLLEVNPLSEMSGRDFGIQKKMGERTLDRKEIAIVWRAIEDSRLIERNKILYKLSLIWACRVGELRQAEVSHFDFEEGVWTVPWENHKTGRKSKKPIIRPIIPEMLPLIQRAIELAPGRFVFSKYADKPMSEGFHMSISSNLVKFMLKAYNEQVPHFTIHDLRRTARTNFSELTEPHIAEMMLGHKLPGVWSVYDKYTYIEEMREAYSKWWARLMSIIEPDVLEFTPRQTG | not soluble
MAISIKGVNTGVIRKSNNFIALALKIKEPRNKESLFFMSVMELRDLLIALESRLHQKHKLDAAAHLQYEQARDKVIKKMAENIPEILVDELKNADINRRVNTLELTDNQGENLTFVLTLHDGSKCELVVNELQIEMLARAIIHAINNAEMRELALRITSLLDFLPLYDVDCQDNGNLEYDTYSQPEWKHNLFDHYLAVLYRFKDESGKEQFSGAVVKTREATPGKEIEAITRRMLDFSPRLKKLAGVPCQVYVRTVAANNAQPLTQDQCLRALHHLRVQSTSKTAPQAK | not soluble
MAKAGREGPRDSVWLSGEGRRGGRRGGQPSGLDRDRITGVTVRLLDTEGLTGFSMRRLAAELNVTAMSVYWYVDTKDQLLELALDAVFGELRHPDPDAGLDWREELRALARENRALLVRHPWSSRLVGTYLNIGPHSLAFSRAVQNVVRRSGLPAHRLTGAISAVFQFVYGYGTIEGRFLARVADTGLSPEEYFQDSMTAVTEVPDTAGVIEDAQDIMAARGGDTVAEMLDRDFEFALDLLVAGIDAMVEQA | soluble
MAKDIRVLLYYLYTPIENAEQFAADHLAFCKSIGLKGRILVADEGINGTVSGDYETTQKYMDYVHSLPGMEELWFKIDEENEQAFKKMFVRYKKEIVHLGLEDNDFDNDINPLETTGAYLSPKEFKEALLDKDTVVLDTRNDYEYDLGHFRGAIRPDIRNFRELPQWVRDNKEKFMDKRVVVYCTGGVRCEKFSGWMVREGYKDVGQLHGGIATYGKDPEVQGELWDGKMYVFDERIAVDVNHVNPTIVGKDWFDGTPCERYVNCGNPFCNRRILTSEENEDKYLRGCSHECRVHPRNRYVSKNELTQAEVIERLAAIGESLDQAATVLEHHHHHH | soluble
MAKGQNAPIRRRTLTRDKVVDAAIEIIDEHGWEQLSMTSLSARLNVVTASLYNHVRNLDDIRGAVQVRTMTELGAHLREIAMGRTGPDGLRALVDAHRAWATQHPHRYQTLTTSPVDRDAFISAALDANTALRTMLASCGLPPEDTLDAAVSIFAAMHGFVMLVNTDFLGDELDLDSIYESVLRGALSSVGWPERTHTPS | not soluble
MAKKRGKPEIDWTDDDKEIIWVSKSEIKRDSEHLKKLGAELIELTPQNLEKIPLDEDLKYAIRQAQSFKLEARRRQIQFIGKLLRNRDSAPIQDALDKVKNRHNQQQALLHKLELIRDQLINMGDASLNQLLSEYPQLDRQHLRNLIRMAQKEKQINKPAKNYHEILQYLKSELIV | not soluble
MAKKSTGFDHDPVRVLVAWNPSSHGAEAIECAAWLARTTNVTVQCVTAFLRPWPSSSGNKLGSKYKKWFKKEAFACEDAVKAAFSRAEIPTAMWADTVSVFCDGTNEAALLSEAAHKFGADIVLLGSEAAAPKGRFLAGSTADALLHSSPQPLGLTPRKPKLSKRGVTRVNFAYTGDATDNTSLIRTARLAAAWDVPLRVLALSPEGFGVPPISDTLELPEDLALEWRENTFAVLDRSRDTVHKAHPDVIVETEIGSGNGWSGAIESLKWKKGDLLCFGSTPLGAFERVFIGSQATEILPYVSVPVLMIPATTKVDKKSKK | soluble
MAKNDIWTPLESNPDSLYLYSCKLGQSKLKFVDIYGFNNDLLDMIPQPVQAVIFLYPVNDNIVSENNTNDKHNLKENFDNVWFIKQYIPNSCGTIALLHLYGNLRNKFELDKDSVLDDFFNKVNEMSAEKRGQELKNNKSIENLHHEFCGQVENRDDILDVDTHFIVFVQIEGKIIELDGRKDHPTVHCFTNGDNFLYDTGKIIQDKFIEKCKDDLRFSALAVIPNDNFDII | soluble
MAKNFAEQIVESLENQGVKRIYGLVGDSLNPIVDAVRTSNIEWIHVRNEETAAFAAEAESLLTGELAVCAASCGPGNTHLVQGLYDANRNGAKVLAIASHIPSRQIGSHFFQETHPEALFAECSGYCEMANSALQGEVILHHAIQSTMAGKGVSVLVLPGDVTMQDVEDDTFTGSRISNARPIMYPDPAEAADLVKAINEAKTVTLFCGAGVRYARKEVLELAEKIKAPIGHALGGKMYIQYDNPFDVGMSGLLGYGACHDASNDADLLILLGTDFPYNDFLPRKNVAQIDIDGSHIGRRTRISHPVVGDVAATISNILPHIEEKTDRSFLDRMLKKHHRKLNDVIEAYTSGVEKHTPIHPEFVANIIDEIAADDAVFTIDTGMCNVWGARYITPNGKREMIGSFRHGTMANALPQAIGASAANPRRQVVTFSGDGGLGMLMGELLTVKLHNLPIKTVVFNNSSLGMVKLEMLVQGMPEHETDHEHVDFDAIAAAVGIEHIKITDPAKARQQLQAAFDYDGPVLIDIITDPNALSIPPNITMDMLMGFSRAATRTVFGGGVGHMVDMAKSNLRNIPKP | not soluble

Source: the DeepSol protein solubility set
